Legend:
[1] = molecular target: T1, Recombinant Human VEGFR2/KDR Protein, His tag (hVEGFR2-his) (human, UniProt P35968 20-764); test: ELISA, hVEGFR2-his coated
T1 construct: Expressed in HEK293, bought from ACRO Biosystems; also called human VEGFR2-his; Human VEGFR2/KDR-His
Method: Same protocol of Example 2 antibody screening by ELISA assay. Briefly, 0.5 μg/ml hVEGFR2-his was coated and serially diluted purified antibodies would bind to coated antigen. Using HRP conjugated goat anti-mouse Fc antibody could detect binding signals of each antibody.
The hybridoma antibodies have similar affinity to human.

[2] = molecular target: T1, Recombinant Human VEGFR2/KDR Protein, …; test: SPR (Biacore), antibody captured by anti-Fc, antigen 2.5-80 nM
Method: A CM5 sensor chip was activated in each flow cell by 7-min injection (10 μl/min) of freshly prepared 1:1 50 mM N-hydroxysuccinimide (NHS): 200 mM 1-ethyl-3-(3-dimethylaminopropyl)-carbodiimide (EDC). Then anti-human Fc antibody (GE Healthcare) in a concentration of 10 μg/ml in 10 mM sodium acetate buffer PH 5.0 was injected onto the activated chip at 10 μl/min (HBS-EP running buffer: 10 mM HEPES, 150 mM NaCl, 3.4 mM EDTA, 0.005% surfactant P20, pH 7.4). The remaining active coupling sites were blocked by 7 min injection of 1M ethanolamine at 10 μl/min. The immobilization level of each flow cell is ˜9000RU. Antibodies were captured in FC2 by anti-human Fc IgG or anti-mouse Fc (GE Healthcare) to 200˜300RU. FC1 was used as the reference cell. Antigen was injected at varying concentrations (2.5 nM, 5 nM, 10 nM, 20 nM, 40 nM and 80 nM) after capture of antibody. The association time for antibody binding antigen is 180s. Surface Regeneration condition is 120s at 10 μl/min in Gly pH1.5. The signals with captured antibody subtracted from those without captured antibody were calculated with Biacore X100 evaluation software ver. 2.0 (Biacore).

[3] = molecular target: T2, human VEGFR2 on HUVEC cells (human, UniProt P35968 20-1356); test: flow cytometry on HUVEC cells, percent shifted cells (Shift%), anti-mouse IgG-PE
T2 construct: also called hVEGFR2 on HUVEC
Method: Log phase HUVEC cells were collected, counted and resuspended in FACS buffer (5% BSA+PBS). 2×10∧5 cells were added to each tube and then washed once with PBS (1500 rpm, 5 mins, RT). Then […] serial diluted VEGFR2 antibodies purified from hybridoma supernatant in FACS buffer were added into corresponding tubes and were incubated at 4° C. for 1 hr. The cells were then washed twice with 1 ml PBS, followed by adding 100 μl/tube of 2nd antibody (1:400 anti-mIgG (H+L)-PE, Cell signaling #8887) in FACS buffer. The cells were incubated at 4° C. for 0.5 hr and then washed twice with PBS, followed by resuspending cells in 600 μl PBS for each sample. The cells were then transferred into FACS tube and the bindings of the antibodies to the cells were detected using flow cytometry (BD Accuri C6) (see FIG. 3).
The percentage of positive binding cells was calculated and fit by Graphpad Prism Software.

[4] = molecular target: T1, Recombinant Human VEGFR2/KDR Protein, …; test: competition ELISA on coated hVEGFR2-his: hybridoma antibody titrated against 100 ng/ml chimeric 002C, anti-human IgG Fc-HRP
[5] = molecular target: T1, Recombinant Human VEGFR2/KDR Protein, …; test: competition ELISA: hVEGFR2-his coated (1 ug/ml), antibody titrated, then 0.3 ug/ml hVEGF-A added and bound VEGF-A detected; blocked ligand hVEGF-A
Method: High-binding clear polystyrene 96 well plates were coated with 100 μl/well of 1 μg/ml hVEGFR2-his overnight at 4° C. After washing and blocking, serial diluted antibodies (from 10 μg/ml to 0.0006 μg/ml) were added and incubate for 1 hour at RT. 0.3 μg/ml hVEGF-A (Acrobiosystem, Cat #VE5-H4210) were added and incubated for 2 hour at RT. Then 100 μl/well of 0.25 μg/ml Biotinylated Rabbit Anti-human VEGF-A (Peprotech, Cat #400-P10Bt) was then added for detecting bound VEGF-A. Then 100 μl/well of a solution of HRP conjugated Neutravidin antibody (Pierce, Cat #31001) and TMB were added sequentially. Finally, reaction was terminated using 0.64M H₂SO₄ and plates were read at 450 nm.

[6] = molecular target: T1, Recombinant Human VEGFR2/KDR Protein, …; test: ELISA, hVEGFR2-his coated, anti-human Fc-HRP; antibody made in 293T cells
Method: Same protocol of Example 4 except using HRP conjugated goat anti-human Fc antibody as secondary antibody. Binding to hVEGFR2-his and rhesus VEGFR2-his (Acrobiosystems, Cat #VE2-C52H3) were also analyzed head-to-head.
Same protocol of Example 9.

T1 sequence (P35968 other isoform, or with tags, fused parts or gaps): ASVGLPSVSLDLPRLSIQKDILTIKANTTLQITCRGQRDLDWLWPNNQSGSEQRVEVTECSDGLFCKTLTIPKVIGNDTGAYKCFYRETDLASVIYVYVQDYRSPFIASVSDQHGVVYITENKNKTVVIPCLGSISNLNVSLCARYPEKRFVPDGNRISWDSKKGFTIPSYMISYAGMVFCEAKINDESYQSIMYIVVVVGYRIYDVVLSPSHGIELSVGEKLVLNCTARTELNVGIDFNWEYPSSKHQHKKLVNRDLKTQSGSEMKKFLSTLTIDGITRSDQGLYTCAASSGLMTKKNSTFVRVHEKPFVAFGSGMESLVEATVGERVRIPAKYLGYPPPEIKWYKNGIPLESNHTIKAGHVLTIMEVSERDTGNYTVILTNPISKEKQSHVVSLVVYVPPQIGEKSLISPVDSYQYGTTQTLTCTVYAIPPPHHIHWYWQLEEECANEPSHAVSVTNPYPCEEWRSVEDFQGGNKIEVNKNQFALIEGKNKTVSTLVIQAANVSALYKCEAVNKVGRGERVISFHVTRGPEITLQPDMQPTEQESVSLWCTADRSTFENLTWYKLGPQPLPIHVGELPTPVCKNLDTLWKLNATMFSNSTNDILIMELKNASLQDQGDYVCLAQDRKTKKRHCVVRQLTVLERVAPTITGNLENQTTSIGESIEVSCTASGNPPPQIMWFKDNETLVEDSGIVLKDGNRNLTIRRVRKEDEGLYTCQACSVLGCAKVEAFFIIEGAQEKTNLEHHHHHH
T2 sequence (P35968 20-1356 V297I/Q472H limits assumed): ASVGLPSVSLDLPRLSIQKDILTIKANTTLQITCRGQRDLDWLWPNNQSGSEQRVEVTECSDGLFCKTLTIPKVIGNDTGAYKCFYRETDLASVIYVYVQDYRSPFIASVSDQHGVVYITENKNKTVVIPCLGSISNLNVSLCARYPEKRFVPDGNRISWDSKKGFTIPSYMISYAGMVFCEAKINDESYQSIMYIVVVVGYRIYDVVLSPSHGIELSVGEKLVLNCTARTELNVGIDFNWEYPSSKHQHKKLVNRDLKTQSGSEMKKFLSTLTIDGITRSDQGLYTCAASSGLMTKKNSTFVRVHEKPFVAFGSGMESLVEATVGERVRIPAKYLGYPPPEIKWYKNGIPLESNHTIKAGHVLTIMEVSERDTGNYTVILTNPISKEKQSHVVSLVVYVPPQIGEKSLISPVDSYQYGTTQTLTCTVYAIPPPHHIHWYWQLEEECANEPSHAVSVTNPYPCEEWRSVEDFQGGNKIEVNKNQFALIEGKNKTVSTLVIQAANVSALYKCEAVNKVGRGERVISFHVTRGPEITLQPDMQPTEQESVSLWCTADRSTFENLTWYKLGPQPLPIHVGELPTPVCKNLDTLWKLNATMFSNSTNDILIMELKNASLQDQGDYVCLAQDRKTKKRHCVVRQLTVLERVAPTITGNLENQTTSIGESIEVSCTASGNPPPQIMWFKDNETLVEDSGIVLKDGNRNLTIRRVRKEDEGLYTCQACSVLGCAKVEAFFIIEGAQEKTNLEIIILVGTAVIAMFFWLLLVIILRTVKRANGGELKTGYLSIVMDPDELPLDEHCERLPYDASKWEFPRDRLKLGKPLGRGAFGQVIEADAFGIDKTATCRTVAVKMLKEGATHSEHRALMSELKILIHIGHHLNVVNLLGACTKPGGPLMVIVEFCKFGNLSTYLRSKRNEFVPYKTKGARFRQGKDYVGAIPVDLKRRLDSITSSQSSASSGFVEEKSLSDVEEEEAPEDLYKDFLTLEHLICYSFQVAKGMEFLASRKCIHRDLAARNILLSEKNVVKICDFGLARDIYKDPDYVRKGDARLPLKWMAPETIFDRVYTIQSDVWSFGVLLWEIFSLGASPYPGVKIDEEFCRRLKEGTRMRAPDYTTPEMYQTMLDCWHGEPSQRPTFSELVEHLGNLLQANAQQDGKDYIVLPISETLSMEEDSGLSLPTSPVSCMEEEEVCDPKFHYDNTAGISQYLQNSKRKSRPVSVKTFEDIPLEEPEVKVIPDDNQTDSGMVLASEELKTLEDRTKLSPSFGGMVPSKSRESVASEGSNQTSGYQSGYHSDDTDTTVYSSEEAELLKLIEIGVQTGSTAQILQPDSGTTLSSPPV

B1: 002 (mouse hybridoma antibody) (antibody, V domains shown)
VH: QVQLQQSGPELVKPGASVKISCKASGYAFSSSWMNWVKQRPGEGLEWIGRIFPGDGDTYYNGKFQVKATLTADKSSSTAYMQLSSLTSEDSAVYFCAIFLDTSGRYVDYWGQGTTLTISS
VL: DIVMTQSHKFMSTSVGDRVSITCKASQDVNTAVAWYQQKPGQSPKLLIYSASYRYIGVPDRFTGSGSGTDFTFTISSVQSEDLTVYYCQQHYRAPLTFGSGTKLELK
notes: Mouse antibody purified from hybridoma; also called mAb002; 11B8
B1 gave an EC50 [1] of 0.0168 µg/mL, a Kd [2] of 5.98 nM and a koff [2] of 0.000336 s⁻¹. The kon [2] was 56200 M⁻¹ s⁻¹, the EC50 [3] was 0.0462 µg/mL and the “IC50 (read off the curve)” value [4] was roughly 0.2 µg/mL. For the same binder, the IC50 [5] was 0.0434 µg/mL.

B2: 042 (mouse hybridoma antibody) (antibody, V domains shown)
VH: EVQLVESGGDLVKPGGSLKLSCTASGFSFSIYGMSWVRQTPDKRLEWVASISVGGSYTYYADSVEGRFTISRENAKNTLYLQMNSLKSEDTALYYCARELDGNYDYWGQGTSLTVSS
VL: DIVITQNELSNPVTFGESVSISCRSSKSLLYKDGKTYLNWFLQRPGQSPQLLIYLMSTRASGVSDRFSGSGSGTDFTLEISRVKAEDVGVYYCQQLVEYPFTFGSGTKLEIK
notes: Mouse antibody purified from hybridoma; also called mAb042; 8G11G1B2C6
With B2 the EC50 [1] was 0.0224 µg/mL, the Kd [2] was 0.573 nM and the koff [2] was 4.88e-05 s⁻¹. For the same binder, the kon [2] was 85100 M⁻¹ s⁻¹, the EC50 [3] was 0.052 µg/mL and the “IC50 (read off the curve)” value [4] was roughly 0.1 µg/mL. For the same binder, the IC50 [5] was 0.0629 µg/mL.

B3: 48-H3L2 (antibody, V domains shown)
VH: EVQLVESGGGLVKPGGSLRLSCAASGFTFSMYGMSWVRQAPGKRLEWVASISIGGSYTYYADSVKGRFTISRDNAKNTLYLQMNSLRAEDTAVYYCAREMDGNYDYWGHGTTLTVSS
VL: DIVITQTPLSLPVTPGESVSISCRSSKSLLYKDGKTYLNWFLQRPGQSPQLLIYLMSTRASGVPDRFSGSGSGTDFTLKISRVEAEDVGVYYCQQLVEYPFTFGSGTKLEIK
notes: also called humanized Mab48 variant H3L2
In the case of B3, the EC50 [6] is reported as 0.0171 µg/mL.

B4: 54-H1L1 (humanized Mab54) (antibody, human IgG1, V domains shown)
VH: EVQLVESGGGLVKPGGSLKLSCAASGFTFSMYGMSWVRQTPGKRLEWVASISIGGSYTYYADSVKGRFTISRDNAKNTLYLQMNSLKAEDTAVYYCARELDGNYDYWGQGTTLTVSS
VL: DIVITQDELSLPVTFGESVSISCRSSKSLLYKDGKTYLNWFLQRPGQSPQLLIYLMSTRASGVSDRFSGSGSGTDFTLKISRVEAEDVGIYYCQQLVEYPFTFGSGTKLEIK
notes: also called humanized 54 variant H1L1
In the case of B4, the Kd [2] is reported as 1.14 nM, the koff [2] is reported as 5.15e-05 s⁻¹ and the kon [2] is reported as 45100 M⁻¹ s⁻¹. The EC50 [6] was 0.0221 µg/mL.

B5: 54-H1L2 (humanized Mab54) (antibody, human IgG1, V domains shown)
VH: EVQLVESGGGLVKPGGSLKLSCAASGFTFSMYGMSWVRQTPGKRLEWVASISIGGSYTYYADSVKGRFTISRDNAKNTLYLQMNSLKAEDTAVYYCARELDGNYDYWGQGTTLTVSS
VL: DIVITQTPLSLPVTPGESVSISCRSSKSLLYKDGKTYLNWFLQRPGQSPQLLIYLMSTRASGVPDRFSGSGSGTDFTLKISRVEAEDVGVYYCQQLVEYPFTFGSGTKLEIK
notes: also called humanized 54 variant H1L2
With B5 the Kd [2] was 3.68 nM, the koff [2] was 0.000139 s⁻¹ and the kon [2] was 37700 M⁻¹ s⁻¹. For the same binder, the EC50 [6] was 0.0706 µg/mL.

B6: 54-H2L2 (humanized Mab54) (antibody, human IgG1, V domains shown)
VH: EVQLVESGGGLVKPGGSLRLSCAASGFTFSMYGMSWVRQAPGKRLEWVASISIGGSYTYYADSVKGRFTISRDNAKNTLYLQMNSLRAEDTAVYYCARELDGNYDYWGQGTTLTVSS
VL: DIVITQTPLSLPVTPGESVSISCRSSKSLLYKDGKTYLNWFLQRPGQSPQLLIYLMSTRASGVPDRFSGSGSGTDFTLKISRVEAEDVGVYYCQQLVEYPFTFGSGTKLEIK
notes: also called humanized 54 variant H2L2
In the case of B6, the Kd [2] is reported as 4.3 nM, the koff [2] is reported as 0.000128 s⁻¹ and the kon [2] is reported as 29700 M⁻¹ s⁻¹. For the same binder, the EC50 [6] was 0.0442 µg/mL.

B7: 003 (mouse hybridoma antibody) (antibody, V domains shown)
VH: QVQLQQPGAELVKPGASVKMSCKASGYTFNTYWIMWVKQRPGQGLEWIGDIYPGTGSTNYNEKFKSKVTLTADTSSTTAYMQVSSLTSEDSAVYYCGRDSNPDYWGQGTTLTVSS
VL: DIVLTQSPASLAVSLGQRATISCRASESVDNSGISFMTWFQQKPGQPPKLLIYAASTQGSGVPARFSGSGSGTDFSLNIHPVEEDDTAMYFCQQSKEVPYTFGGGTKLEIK
notes: Mouse antibody purified from hybridoma; also called mAb003; 21B4
B7 was tested, and the EC50 [1] was 0.00769 µg/mL, the Kd [2] was 0.235 nM and the koff [2] was 2.95e-05 s⁻¹. The kon [2] was 126000 M⁻¹ s⁻¹.

B8: 006 (mouse hybridoma antibody) (antibody, V domains shown)
VH: QAQLQQPGAELVKPGTSVKMSCKASGYTFNSYWIMWVKQSPGQGLEWIGDIYPGSGSTNYNEKFKSKVTLTVDTSSSTAYMQVSSLTSEDSAVYYCARDSNPDYWGQGTTLTVSS
VL: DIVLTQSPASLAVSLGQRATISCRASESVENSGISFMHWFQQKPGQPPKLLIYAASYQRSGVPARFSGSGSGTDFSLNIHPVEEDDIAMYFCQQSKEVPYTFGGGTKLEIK
notes: Mouse antibody purified from hybridoma; also called mAb006; 27E8A9D5
Work on B8 yielded an EC50 [1] of 0.0135 µg/mL, a Kd [2] of 1.47 nM and a koff [2] of 0.000186 s⁻¹. For the same binder, the kon [2] was 127000 M⁻¹ s⁻¹.

B9: 018 (mouse hybridoma antibody) (antibody, V domains shown)
VH: EVKLVESGGGLVQPGGSLSLSCAVSGFTFTDYYMSWVRQPPGKALEWLGFIRNKANGYTTEYSASVKGRFTISRDNSQSILYLQMNALRAEDSATYYCARFDYYGSTYCFDYWGQGTTLTVSS
VL: DIVLTQSPASLAVSLGQRATISCRASQSVSTSSSSFMHWYQQKPGQPPKLLIKYASNLESGVPARFSGSGSGTDFTLNIHPVEEEDTATYYCQHTWEIPLTFGAGTKLELK
notes: Mouse antibody purified from hybridoma; also called mAb018; 16D9G2E8
Work on B9 yielded an EC50 [1] of 0.0129 µg/mL, a Kd [2] of 5.11 nM and a koff [2] of 0.000452 s⁻¹. The kon [2] was 88400 M⁻¹ s⁻¹.

Source: patent publication US20240209099A1 (SUZHOU TRANSCENTA THERAPEUTICS, published 2024)
